This is an account of results in patent US20150307625A1 (Bayer, published 2015).

Experiment [1] deals with rabbit activated Protein C (rabbit) (UniProt Q28661). Put plainly: ELISA, hIgG1.
Experiment [2] has the same target. Put plainly: cell-based or functional assay.
Experiment [3] addresses T1, human activated Protein C (human, UniProt P04070 43-461).
T1 construct: also called human aPC; hAPC
Put plainly: ELISA, hIgG1.

Experiment [4] deals with rabbit activated Protein C (rabbit) (UniProt Q28661). Put plainly: direct ELISA, aPC coated, hIgG1.
Experiment [5] concerns the target T1, human activated Protein C. Put plainly: cell-based or functional assay.
Experiment [6] concerns the target T1, human activated Protein C. Put plainly: direct ELISA, aPC coated, hIgG1.
The target in experiment [7] is T2, dog activated Protein C (dog, UniProt Q28278 43-456).
T2 construct: mature; also called dog aPC; dAPC
T2 sequence (looked up): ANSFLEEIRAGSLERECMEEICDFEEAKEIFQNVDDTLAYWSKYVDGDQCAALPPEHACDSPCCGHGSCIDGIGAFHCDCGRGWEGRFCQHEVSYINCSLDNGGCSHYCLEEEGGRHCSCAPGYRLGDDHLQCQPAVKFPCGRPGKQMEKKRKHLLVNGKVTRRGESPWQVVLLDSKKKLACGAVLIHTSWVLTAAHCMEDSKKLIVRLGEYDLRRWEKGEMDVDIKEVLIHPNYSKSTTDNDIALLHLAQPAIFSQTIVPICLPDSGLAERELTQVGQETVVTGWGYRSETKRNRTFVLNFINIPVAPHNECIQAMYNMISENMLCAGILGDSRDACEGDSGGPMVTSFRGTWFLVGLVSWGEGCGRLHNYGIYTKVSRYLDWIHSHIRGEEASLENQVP
Put plainly: ELISA, hIgG1. (In general: ELISA stands for enzyme-linked immunosorbent assay.)

Experiment [8] addresses T2, dog activated Protein C. In words: cell-based or functional assay.
The target in experiment [9] is T3, dog Protein C (zymogen) (dog, UniProt Q28278 43-456).
T3 construct: mature; also called dog PC
T3 sequence (looked up): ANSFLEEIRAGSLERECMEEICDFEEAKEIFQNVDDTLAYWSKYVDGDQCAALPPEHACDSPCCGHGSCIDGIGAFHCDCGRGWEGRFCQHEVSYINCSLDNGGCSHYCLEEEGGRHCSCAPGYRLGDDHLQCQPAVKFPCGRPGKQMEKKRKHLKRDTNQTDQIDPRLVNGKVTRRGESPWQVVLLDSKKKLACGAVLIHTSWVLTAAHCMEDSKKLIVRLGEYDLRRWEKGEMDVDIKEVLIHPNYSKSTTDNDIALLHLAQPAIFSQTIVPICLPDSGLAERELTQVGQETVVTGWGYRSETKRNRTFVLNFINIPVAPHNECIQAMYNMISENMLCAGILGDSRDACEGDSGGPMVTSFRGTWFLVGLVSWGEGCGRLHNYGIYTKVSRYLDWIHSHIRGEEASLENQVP
In words: direct ELISA, antigen coated.

The target of experiment [10] is T2, dog activated Protein C. In words: direct ELISA, aPC coated, hIgG1.
In experiment [11] the target is T2, dog activated Protein C. In words: Biacore, Fab.
The target in experiment [12] is T2, dog activated Protein C. Put plainly: direct ELISA, antigen coated, Fab.
The target in experiment [13] is T3, dog Protein C (zymogen). In words: direct ELISA, dPC coated at 10 ug/ml, Fab at 20 nM, anti-human Fab-HRP, AmplexRed (RFU). As for the experimental part:
(§1) To determine the binding selectivity of these fabs, their binding activities to the proenzyme human PC, to thrombin (FIIa), and to the activated Factor II (FIIa, thrombin), Factor VII (FVIIa), Factor IX (FIXa), and Factor X (FXa) were also assessed by ELISA. Briefly, an ELISA plate was coated with human aPC at 1 ug/ml, mouse PC at 10 ug/ml, dog PC at 10 ug/ml, other coagulation factors (FIIa, FVIIa, FIXa, FXa) at 5-10 ug/ml. Anti-aPC Fabs were added to the wells at 20 nM (1 ug/ml). Bound Fabs were detected by the secondary antibody (anti-human Fab-HRP) followed by HRP substrate AmplexRed.

The target of experiment [14] is T4, mouse Protein C (zymogen) (mouse, UniProt P33587 42-460).
T4 construct: mature; also called mouse PC
T4 sequence (looked up): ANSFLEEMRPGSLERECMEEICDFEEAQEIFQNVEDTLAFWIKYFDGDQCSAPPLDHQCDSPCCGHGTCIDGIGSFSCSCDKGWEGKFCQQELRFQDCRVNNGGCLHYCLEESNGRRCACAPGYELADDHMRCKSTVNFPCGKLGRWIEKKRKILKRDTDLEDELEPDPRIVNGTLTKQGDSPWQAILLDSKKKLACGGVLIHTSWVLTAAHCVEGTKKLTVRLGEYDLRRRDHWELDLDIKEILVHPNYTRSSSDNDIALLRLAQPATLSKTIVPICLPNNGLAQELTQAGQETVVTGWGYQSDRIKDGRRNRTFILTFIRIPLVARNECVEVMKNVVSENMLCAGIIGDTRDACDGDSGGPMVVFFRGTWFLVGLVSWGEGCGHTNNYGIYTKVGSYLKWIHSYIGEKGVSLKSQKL
Put plainly: direct ELISA, mPC coated at 10 ug/ml, Fab at 20 nM, anti-human Fab-HRP, AmplexRed (RFU). As for the experimental part: as §1

Experiment [15] concerns the target T1, human activated Protein C. In words: Biacore, Fab. (SPR reads the build-up and loss of mass on a sensor chip optically.)
Experiment [16] addresses T1, human activated Protein C. Put plainly: direct ELISA, antigen coated, Fab.
Experiment [17] has as its target T5, human Protein C (zymogen) (human, UniProt P04070 43-461).
T5 construct: also called human PC; hPC
In words: direct ELISA, antigen coated at 100 ng/well, Fab at 20 nM (1 ug/ml), anti-human Fab-HRP, AmplexRed (RFU). As for the experimental part: FIG. 3 depicts a graph characterizing anti-APC Fabs by direct ELISA. An ELISA plate was coated with human PC (hPC), human aPC (hAPC), dog aPC (dAPC), mouse aPC (mAPC) at 100 ng per well. Purified Fabs designate on the X-axis were added to the plate at 20 nM (1 ug/ml). Bound Fab was detected by the secondary antibody (anti-human Fab-HRP) followed by HRP substrate AmplexRed. The purified Fabs preferentially bind to human aPC and, with the exception of Fab R41C17, show little to no binding to human PC.
Antigens were coated directly on ELISA plates. Coating antigens included human PC (plasma-derived), human aPC (recombinant), dog aPC (plasma-derived), and mouse aPC (recombinant) at 100 ng/well in PBS/Ca buffer. After blocking the plate with 5% milk/PBS and washing the plate with PBS-Tween20, soluble Fabs (1 ug/ml, 20 nM) were added to the plate and incubated for 1 h at RT with shaking. Fab binding was detected with anti-human Fab (lambda) antibody-HRP and Amplex red as substrate. […] In contrast, R41C17 binds to both human APC and human PC. Also shown in FIG. 3 is cross-species reactivity of Fabs by ELISA.

Residue numbers refer to the chain shown, from its start.

B1: C22J13 hIgG1 (antibody, V domains shown)
VH: EVQLLESGGGLVQPGGSLRLSCAASGFTFSSNYMSWVRQAPGKGLEWVAVISYDGSNKYYADSVKGRFTISRDNSKNTLYLQMNSLRAEDTAMYYCALTGRSGWMRFPNWFDPWGQGTLVTVTS
VL: QSVLTQPPSASGTPGQRVTISCSGSDSNIGSNAVNWYQQLPGTAPKLLIYDNNKRPSGVPDRFSGSKSGTSASLAISGLRSEDEADYYCSSYTSSNTVVFGGGTKLTVLG
By EC50 is commonly meant the concentration that produces a half-maximal response. B1: the EC50 in experiment [1] was 0.6 nM; in experiment [3], 0.5 nM; in experiment [4], 0.6 nM; in experiment [6], 0.49 nM. Moreover, the values for the Anti-aPC IC50 (nM), Amidolytic activity in [2] and in experiment [5] were 24 nM and 27 nM, respectively.

B2: C7A23 hIgG1 (antibody, V domains shown)
VH: EVQLLESGGGLVQPGGSLRLSCAASGFTFGNHWMTWVRQAPGKGLEWVSGVSWNGSRTHYADSVKGRFTISRDNSKNTLYLQMNSLRAEDTAVYYCALTGRSGWMRFPNWFDPWGQGTLVTVTS
VL: QSVLTQPPSASGTPGQRVTISCSGSSSNIGNNYVSWYQQLPGTAPKLLIYRNNQRPSGVPDRFSGSKSGTSASLAISGLRSEDEADYYCQSYDSDLSGPYVLFGGGTKLTVLG
notes: also called C7A23-IgG
Turning to B2, the EC50 in [1] was 7 nM; with dog activated Protein C [7], 10.9 nM; in [4], 7 nM; with dog activated Protein C [10] it was 10.9 nM. For the same molecule, the Anti-aPC IC50 (nM), Amidolytic activity in experiment [2] came out at 25 nM; with dog activated Protein C [8], 49 nM. Besides, the binding result with dog Protein C (zymogen) [9] is “no binding”.

B3: C7A23 Fab (Fab, V domains shown)
VH: B2 VH
VL: B2 VL
notes: Human Fab (lambda) from a phage library, expressed in E. coli
Usually Kd stands for a measure of binding affinity in units of concentration. Low readings indicate tighter binding, high ones weaker binding. Consider B3, for which, in the experiment with dog activated Protein C [11], the affinity, expressed as Kd, was 1.3 nM. This molecule also showed an EC50 with dog activated Protein C [12] of 6 nM. Moreover, the binding result (with dog Protein C (zymogen) [13]; in experiment [14]) was “no binding (tested: 20 nM)” in each case.

B4: C7I7 Fab (Fab, V domains shown)
VH: B2 VH
VL: QSVLTQPPSASGTPGQRVTISCTGSSSNIGAGYDVHWYQQLPGTAPKLLIYGNSNRPSGVPDRFSGSKSGTSASLAISGLRSEDEAAYYCSSYVGSDLVVFGGGTKLTVLG
notes: Human Fab (lambda) from a phage library, expressed in E. coli; also called C717
For the molecule B4, the Kd (in [15]; with dog activated Protein C [11]) was 1.3 nM each time. Also, the 50% effective concentration (EC50) in [16] worked out at 6.3 nM; with dog activated Protein C [12] it was 3.9 nM. For the same molecule, the binding result (in the experiment with dog Protein C (zymogen) [13]; in experiment [14]; in experiment [17]) was “no binding (tested: 20 nM)” each time.

B5: C25K23 Fab (Fab, V domains shown)
VH: B2 VH with G30S, N31S, H32Y, T35S
VL: QSVLTQPPSASGTPGQRVTISCTGSSSNIGAAYDVHWYQQLPGTAPKLLIYGNNKRPSGVPDRFSGSKSGTSASLAISGLRSEDEADYYCQSYDSSLSGSVFGGGTKLTVLG
notes: Human Fab (lambda) from a phage library, expressed in E. coli; also called Fab C25K23
Regarding B5, the values for the Kd (in experiment [15]; with dog activated Protein C [11]) were 2 nM and 5.2 nM, respectively. Moreover, the EC50 in experiment [16] is 4.3 nM; in the experiment with dog activated Protein C [12] it was 8.2 nM. The binding result (in the experiment with dog Protein C (zymogen) [13]; in experiment [14]; in experiment [17]) was “no binding (tested: 20 nM)” each time.
